Target: T1, FLAG-G3BP1 Q392*, bacterially expressed (UniProt Q13283 1-391, Q392*)
T1 construct: The bacterial expression construct is not described in the methods; source: bacterially expressed
Assay: pull-down; GST fusion protein fixed on glutathione-Sepharose beads, incubated with recombinant FLAG-labeled proteins for 2 h, washed 5 times, Western blot with anti-FLAG
Details: both partners purified

T1 sequence (Q13283 1-391, stated change not applied): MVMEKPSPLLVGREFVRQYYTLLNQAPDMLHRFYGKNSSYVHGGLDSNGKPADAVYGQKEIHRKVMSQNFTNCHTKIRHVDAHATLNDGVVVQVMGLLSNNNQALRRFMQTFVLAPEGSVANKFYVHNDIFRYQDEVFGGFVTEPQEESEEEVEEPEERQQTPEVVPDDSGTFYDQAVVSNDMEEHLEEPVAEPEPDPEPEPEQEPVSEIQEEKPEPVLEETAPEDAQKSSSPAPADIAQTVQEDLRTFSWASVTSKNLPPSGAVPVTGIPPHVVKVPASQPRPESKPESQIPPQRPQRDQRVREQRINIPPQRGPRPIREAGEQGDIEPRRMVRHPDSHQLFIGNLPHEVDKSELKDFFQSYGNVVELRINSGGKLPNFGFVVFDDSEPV

B1: GST-SPOP, bacterially expressed (natural protein, UniProt O43791 1-374, looked up)
chain: MSRVPSPPPPAEMSSGPVAESWCYTQIKVVKFSYMWTINNFSFCREEMGEVIKSSTFSSGANDKLKWCLRVNPKGLDEESKDYLSLYLLLVSCPKSEVRAKFKFSILNAKGEETKAMESQRAYRFVQGKDWGFKKFIRRDFLLDEANGLLPDDKLTLFCEVSVVQDSVNISGQNTMNMVKVPECRLADELGGLWENSRFTDCCLCVAGQEFQAHKAILAARSPVFSAMFEHEMEESKKNRVEINDVEPEVFKEMMCFIYTGKAPNLDKMADDLLAAADKYALERLKVMCEDALCSNLSVENAAEILILADLHSADQLKTQAVDFINYHASDVLETSGWKSMVVSHPHLVAEAYRSLASAQCPFLGPPRKRLKQS
notes: SPOP as a GST fusion protein; The bacterial expression construct is not described in the methods
B1: binds.
